In US11851495 (Boehringer Ingelheim, dated 2023):
Substitutions are numbered along the chain they refer to.

B1: CDH17H2/TR2v2-(IgG1 KO) (bispecific antibody)
heavy: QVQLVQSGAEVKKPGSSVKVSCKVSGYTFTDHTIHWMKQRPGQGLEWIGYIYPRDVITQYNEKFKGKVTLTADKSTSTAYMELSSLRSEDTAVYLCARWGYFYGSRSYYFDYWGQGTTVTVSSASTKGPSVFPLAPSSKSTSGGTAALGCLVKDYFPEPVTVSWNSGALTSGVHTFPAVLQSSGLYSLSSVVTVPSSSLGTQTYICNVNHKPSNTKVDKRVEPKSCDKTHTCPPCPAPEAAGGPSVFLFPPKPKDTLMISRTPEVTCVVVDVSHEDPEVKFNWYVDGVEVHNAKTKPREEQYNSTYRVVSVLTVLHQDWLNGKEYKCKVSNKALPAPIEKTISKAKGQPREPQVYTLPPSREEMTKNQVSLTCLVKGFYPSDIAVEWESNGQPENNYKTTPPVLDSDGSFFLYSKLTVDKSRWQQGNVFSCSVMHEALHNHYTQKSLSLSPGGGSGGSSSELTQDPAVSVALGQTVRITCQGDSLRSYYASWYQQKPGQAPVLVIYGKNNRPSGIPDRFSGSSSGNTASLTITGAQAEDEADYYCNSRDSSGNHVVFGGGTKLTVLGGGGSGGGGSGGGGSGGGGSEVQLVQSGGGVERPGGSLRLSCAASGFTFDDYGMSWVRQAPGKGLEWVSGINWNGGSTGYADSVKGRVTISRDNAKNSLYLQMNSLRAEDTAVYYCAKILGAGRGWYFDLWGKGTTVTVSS
light: DIQMTQSQSSLSASVGDRVGITCKASQNVGTAVAWYQQKPGKAPKLLIYSASNRYTGVPSRFSGSGSGTDFTLTISSLQPKDFATYFCQQYSSYPWTFGQGTKLEIKRTVAAPSVFIFPPSDEQLKSGTASVVCLLNNFYPREAKVQWKVDNALQSGNSQESVTEQDSKDSTYSLSSTLTLSKADYEKHKVYACEVTHQGLSSPVTKSFNRGEC
B2: CDH17H2/TR2v4-(IgG1 KO) (bispecific antibody)
heavy: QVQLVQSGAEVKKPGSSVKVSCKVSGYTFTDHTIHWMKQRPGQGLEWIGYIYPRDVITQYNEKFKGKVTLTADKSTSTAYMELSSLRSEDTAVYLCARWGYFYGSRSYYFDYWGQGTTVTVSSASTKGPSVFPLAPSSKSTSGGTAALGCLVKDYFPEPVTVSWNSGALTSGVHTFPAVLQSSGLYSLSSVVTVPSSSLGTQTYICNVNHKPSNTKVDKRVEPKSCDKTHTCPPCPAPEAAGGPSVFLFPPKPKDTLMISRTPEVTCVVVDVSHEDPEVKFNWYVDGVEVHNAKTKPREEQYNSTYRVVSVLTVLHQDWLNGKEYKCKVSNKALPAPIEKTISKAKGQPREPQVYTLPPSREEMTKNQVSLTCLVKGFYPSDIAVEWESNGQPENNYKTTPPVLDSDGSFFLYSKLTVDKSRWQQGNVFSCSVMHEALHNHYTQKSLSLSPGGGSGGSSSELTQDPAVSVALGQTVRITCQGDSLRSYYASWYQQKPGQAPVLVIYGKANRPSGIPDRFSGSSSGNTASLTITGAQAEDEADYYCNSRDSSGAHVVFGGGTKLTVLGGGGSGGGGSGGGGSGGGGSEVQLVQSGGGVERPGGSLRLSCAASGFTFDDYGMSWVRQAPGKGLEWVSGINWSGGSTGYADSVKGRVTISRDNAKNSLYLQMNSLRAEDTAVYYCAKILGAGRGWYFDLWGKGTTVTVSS
light: B1 light
B3: CDH17H2/TR2v7-(IgG1 KO) (bispecific antibody)
heavy: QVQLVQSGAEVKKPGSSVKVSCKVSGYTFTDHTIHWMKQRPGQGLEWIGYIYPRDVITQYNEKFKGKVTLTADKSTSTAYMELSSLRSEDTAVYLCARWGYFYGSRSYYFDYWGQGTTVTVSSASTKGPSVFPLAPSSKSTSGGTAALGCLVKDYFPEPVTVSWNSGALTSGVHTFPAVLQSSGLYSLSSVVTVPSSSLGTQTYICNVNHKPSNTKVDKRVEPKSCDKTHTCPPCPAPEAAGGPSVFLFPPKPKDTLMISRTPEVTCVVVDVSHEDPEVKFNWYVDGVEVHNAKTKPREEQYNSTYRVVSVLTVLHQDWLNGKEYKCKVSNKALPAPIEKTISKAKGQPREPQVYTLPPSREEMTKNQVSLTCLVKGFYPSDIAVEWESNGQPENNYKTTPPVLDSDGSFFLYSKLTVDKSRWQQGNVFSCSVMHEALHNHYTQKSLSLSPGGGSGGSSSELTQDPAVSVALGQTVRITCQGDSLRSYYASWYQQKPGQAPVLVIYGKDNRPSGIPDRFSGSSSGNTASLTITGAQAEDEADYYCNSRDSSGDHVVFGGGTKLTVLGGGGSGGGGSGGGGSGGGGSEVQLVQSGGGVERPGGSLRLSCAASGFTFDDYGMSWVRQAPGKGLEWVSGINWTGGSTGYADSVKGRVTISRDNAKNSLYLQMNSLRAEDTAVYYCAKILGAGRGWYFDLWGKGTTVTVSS
light: B1 light
B4: CDH17H2/TR2v5-(IgG1 KO) (bispecific antibody)
heavy: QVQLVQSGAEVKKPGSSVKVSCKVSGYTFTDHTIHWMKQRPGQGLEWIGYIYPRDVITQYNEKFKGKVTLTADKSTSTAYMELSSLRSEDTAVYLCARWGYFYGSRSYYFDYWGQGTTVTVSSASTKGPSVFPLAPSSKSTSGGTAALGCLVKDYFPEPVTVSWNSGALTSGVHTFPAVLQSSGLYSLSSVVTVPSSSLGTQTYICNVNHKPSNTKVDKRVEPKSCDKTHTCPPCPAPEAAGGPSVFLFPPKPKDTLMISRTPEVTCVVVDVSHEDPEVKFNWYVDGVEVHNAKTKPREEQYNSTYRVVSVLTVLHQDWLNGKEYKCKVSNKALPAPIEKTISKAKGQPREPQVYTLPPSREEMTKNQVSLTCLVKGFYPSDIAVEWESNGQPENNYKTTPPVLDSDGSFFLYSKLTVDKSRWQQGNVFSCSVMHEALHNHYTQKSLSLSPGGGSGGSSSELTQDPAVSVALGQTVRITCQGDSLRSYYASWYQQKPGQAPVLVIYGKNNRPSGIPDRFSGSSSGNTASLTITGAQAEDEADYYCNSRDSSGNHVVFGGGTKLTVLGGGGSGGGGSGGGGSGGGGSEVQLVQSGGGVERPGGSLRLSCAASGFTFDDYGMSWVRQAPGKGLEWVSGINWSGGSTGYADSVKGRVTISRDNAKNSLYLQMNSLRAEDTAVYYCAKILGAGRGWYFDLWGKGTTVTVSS
light: B1 light
B5: CDH17H2/TR2v3-(IgG1 KO) (bispecific antibody)
heavy: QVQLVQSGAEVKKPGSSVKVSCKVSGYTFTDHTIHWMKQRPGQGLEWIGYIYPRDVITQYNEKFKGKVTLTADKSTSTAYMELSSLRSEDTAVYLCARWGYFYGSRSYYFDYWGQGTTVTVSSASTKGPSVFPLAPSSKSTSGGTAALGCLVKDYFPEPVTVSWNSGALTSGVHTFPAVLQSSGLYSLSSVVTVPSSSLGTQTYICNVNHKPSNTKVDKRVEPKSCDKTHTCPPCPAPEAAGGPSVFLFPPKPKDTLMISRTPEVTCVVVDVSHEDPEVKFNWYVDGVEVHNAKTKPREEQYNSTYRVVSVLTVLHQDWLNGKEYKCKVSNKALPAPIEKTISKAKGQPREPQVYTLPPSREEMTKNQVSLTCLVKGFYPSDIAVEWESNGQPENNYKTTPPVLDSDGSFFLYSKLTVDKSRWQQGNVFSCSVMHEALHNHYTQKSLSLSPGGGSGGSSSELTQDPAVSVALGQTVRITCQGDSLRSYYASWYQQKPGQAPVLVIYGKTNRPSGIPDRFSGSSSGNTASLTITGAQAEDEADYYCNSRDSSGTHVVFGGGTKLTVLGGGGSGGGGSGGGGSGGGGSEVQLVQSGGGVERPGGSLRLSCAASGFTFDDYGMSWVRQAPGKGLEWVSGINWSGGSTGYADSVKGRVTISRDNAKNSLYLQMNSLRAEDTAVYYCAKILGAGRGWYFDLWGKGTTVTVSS
light: B1 light
B6: CDH17H2/TR2v6-(IgG1 KO) (bispecific antibody)
heavy: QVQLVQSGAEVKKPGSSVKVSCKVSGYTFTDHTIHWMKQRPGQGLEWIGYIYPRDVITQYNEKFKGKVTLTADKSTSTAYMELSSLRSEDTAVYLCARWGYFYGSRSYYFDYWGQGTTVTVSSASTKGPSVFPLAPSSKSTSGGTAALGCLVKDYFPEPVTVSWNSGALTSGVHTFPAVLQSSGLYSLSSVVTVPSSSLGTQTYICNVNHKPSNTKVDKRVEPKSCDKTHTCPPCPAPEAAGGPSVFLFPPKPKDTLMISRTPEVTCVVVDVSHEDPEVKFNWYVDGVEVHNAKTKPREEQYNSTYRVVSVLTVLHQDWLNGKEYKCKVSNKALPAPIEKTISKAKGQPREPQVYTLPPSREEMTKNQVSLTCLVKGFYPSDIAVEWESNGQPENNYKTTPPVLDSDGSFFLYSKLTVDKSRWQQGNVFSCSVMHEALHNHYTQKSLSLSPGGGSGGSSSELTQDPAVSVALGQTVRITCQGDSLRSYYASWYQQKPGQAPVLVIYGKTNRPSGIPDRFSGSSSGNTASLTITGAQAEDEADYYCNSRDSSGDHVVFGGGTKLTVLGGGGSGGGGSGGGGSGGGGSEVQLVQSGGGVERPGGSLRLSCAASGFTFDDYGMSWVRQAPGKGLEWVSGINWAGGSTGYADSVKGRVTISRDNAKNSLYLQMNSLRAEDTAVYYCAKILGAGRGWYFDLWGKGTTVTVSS
light: B1 light
B7: CDH17v1/TR2v1 (bispecific antibody, human IgG1, kappa)
heavy: not shown
light: DIVMSQSPSSLAVSVGEKVTMSCKSSQSLLHSSNQKNYLAWYQQKPGQSPKVLIYWASTRESGVPDRFTGSGSGTDFTLTITSVKSEDLAVYYCQQYYSYPWTFGGGTRLEIKRTVAAPSVFIFPPSDEQLKSGTASVVCLLNNFYPREAKVQWKVDNALQSGNSQESVTEQDSKDSTYSLSSTLTLSKADYEKHKVYACEVTHQGLSSPVTKSFNRGEC
B8: CDH17v1/TR2v1-(IgG1 KO) (bispecific antibody)
heavy: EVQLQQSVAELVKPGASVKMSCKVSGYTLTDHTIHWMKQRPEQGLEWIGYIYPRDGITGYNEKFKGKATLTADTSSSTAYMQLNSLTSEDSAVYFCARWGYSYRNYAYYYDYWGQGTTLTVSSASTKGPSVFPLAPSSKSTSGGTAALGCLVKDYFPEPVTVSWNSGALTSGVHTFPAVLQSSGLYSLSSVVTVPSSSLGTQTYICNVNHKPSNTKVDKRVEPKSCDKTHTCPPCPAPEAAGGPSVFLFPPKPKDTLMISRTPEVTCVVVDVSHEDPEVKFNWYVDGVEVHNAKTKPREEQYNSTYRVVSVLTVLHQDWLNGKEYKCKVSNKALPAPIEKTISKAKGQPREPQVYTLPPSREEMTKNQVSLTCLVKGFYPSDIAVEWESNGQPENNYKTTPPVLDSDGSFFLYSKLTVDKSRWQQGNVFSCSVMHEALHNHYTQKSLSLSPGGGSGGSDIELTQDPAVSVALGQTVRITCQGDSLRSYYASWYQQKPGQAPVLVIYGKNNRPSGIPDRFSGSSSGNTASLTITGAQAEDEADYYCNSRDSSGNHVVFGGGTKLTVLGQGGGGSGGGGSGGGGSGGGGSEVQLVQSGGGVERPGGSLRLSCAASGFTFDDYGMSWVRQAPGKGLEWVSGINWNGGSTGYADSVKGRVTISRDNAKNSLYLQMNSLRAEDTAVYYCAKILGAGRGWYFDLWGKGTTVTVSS
light: B7 light
B9: CDH17v1/TR2#3-(IgG1 KO) (bispecific antibody)
heavy: not shown
light: B7 light
B10: CDH17v1/TR2#10-(IgG1 KO) (bispecific antibody)
heavy: not shown
light: B7 light
B11: CDH17v1/TR2#8-(IgG1 KO) (bispecific antibody)
heavy: not shown
light: B7 light
B12: CDH17v1/TR2#1-(IgG1 KO) (bispecific antibody)
heavy: not shown
light: B7 light
B13: CDH17v1/TR2#2-(IgG1 KO) (bispecific antibody)
heavy: not shown
light: B7 light
B14: anti-TRAILR2 antibody (anti-TR2v2) (antibody, V domains shown)
VH: EVQLVQSGGGVERPGGSLRLSCAASGFTFDDYGMSWVRQAPGKGLEWVSGINWNGGSTGYADSVKGRVTISRDNAKNSLYLQMNSLRAEDTAVYYCAKILGAGRGWYFDLWGKGTTVTVSS
VL: SSELTQDPAVSVALGQTVRITCQGDSLRSYYASWYQQKPGQAPVLVIYGKNNRPSGIPDRFSGSSSGNTASLTITGAQAEDEADYYCNSRDSSGNHVVFGGGTKLTVL
B15: CDH17E9/TR2v2-(IgG1 KO) (bispecific antibody)
heavy: not shown
light: DIVMTQSQTFMSTTVGDRVSITCKASQNVGTALAWYQQKPRQSPKLLIYSASNRFTGVPDRFTGSGSGTDFTLTISNMRSEDLADYVCQQYSTYPLTFGSGTKLEIRRTVAAPSVFIFPPSDEQLKSGTASVVCLLNNFYPREAKVQWKVDNALQSGNSQESVTEQDSKDSTYSLSSTLTLSKADYEKHKVYACEVTHQGLSSPVTKSFNRGEC
B16: CDH17A6/TR2v2-(IgG1 KO) (bispecific antibody)
heavy: not shown
light: DIVMTQSQKFMSTTVGDRVSITCKASQNVGTGVVWYQQRPGQSPKLLIYSPSNRYTGVPDRFTGSGSGTDFTLTITNIQSEDLADYFCQQYSTYPWTFGGGTKLEIKRTVAAPSVFIFPPSDEQLKSGTASVVCLLNNFYPREAKVQWKVDNALQSGNSQESVTEQDSKDSTYSLSSTLTLSKADYEKHKVYACEVTHQGLSSPVTKSFNRGEC
B17: CDH17E2/TR2v2-(IgG1 KO) (bispecific antibody)
heavy: not shown
light: B16 light with S20N, G32A, V34A, R39K, P51A, I78M, E81K, T93S
B18: anti-CDH17H2 antibody (antibody, V domains shown)
VH: QVQLVQSGAEVKKPGSSVKVSCKVSGYTFTDHTIHWMKQRPGQGLEWIGYIYPRDVITQYNEKFKGKVTLTADKSTSTAYMELSSLRSEDTAVYLCARWGYFYGSRSYYFDYWGQGTTVTVSS
VL: DIQMTQSQSSLSASVGDRVGITCKASQNVGTAVAWYQQKPGKAPKLLIYSASNRYTGVPSRFSGSGSGTDFTLTISSLQPKDFATYFCQQYSSYPWTFGQGTKLEIK
notes: also called parental CDH17 antibody

These binders were tested against TNF-related apoptosis-inducing ligand receptor 2 (TRAILR2) (human, UniProt O14763 56-440) (assay: cell-based or functional assay).

Row | Binder | cell viability of Colo-205 cells, 24 h [nM] | concentration needed for an effect on viability of HepG2 cells (CDH17 negative), 72 h [nM] | cell viability of Colo-205 cells, 24 h (CellTiter-Glo) [fold]
1 | B1 | 0.01 | > 1 | –
2 | B2 | 0.01 | > 1 | –
3 | B3 | 0.01 | > 1 | –
4 | B4 | 0.01 | > 1 | –
5 | B5 | 0.01 | > 1 | –
6 | B6 | 0.01 | > 1 | –
7 | B7 | – | – | > 1000
8 | B8 | 0.01 | – | –
9 | B9 | 0.01 | – | –
10 | B10 | 0.01 | – | –
11 | B11 | 0.01 | – | –
12 | B12 | 0.01 | – | –
13 | B13 | 0.01 | – | –
14 | B14 | 0.01 | – | –
15 | B15 | 0.01 | – | –
16 | B16 | 0.01 | – | –
17 | B17 | 0.01 | – | –

The binders below were run against T1, cadherin-17 (CDH17) (human, UniProt Q12864 23-832) (assay: cell-based or functional assay).

Row | Binder | cell viability of Colo-205 cells, 24 h [nM] | cell viability of Colo-205 cells, 24 h (CellTiter-Glo) [fold]
18 | B1 | 0.01 | –
19 | B2 | 0.01 | –
20 | B3 | 0.01 | –
21 | B4 | 0.01 | –
22 | B5 | 0.01 | –
23 | B6 | 0.01 | –
24 | B7 | – | > 1000
25 | B8 | 0.01 | –
26 | B9 | 0.01 | –
27 | B10 | 0.01 | –
28 | B11 | 0.01 | –
29 | B12 | 0.01 | –
30 | B13 | 0.01 | –
31 | B15 | 0.01 | –
32 | B16 | 0.01 | –
33 | B17 | 0.01 | –

Each binder was assayed against T1, cadherin-17 (CDH17) (assay: flow cytometry (FACS) on Colo-205 cells, antibody as primary reagent).
Description: TRAILR2 and CDH17 protein surface expression on the Colo-205 cells was analyzed as follows. Cells were detached using Accutase (Sigma A6964) and washed twice with FACS buffer (PBS, Gibco 14190; 3% FCS, Gibco 26140; and 0.09% NaN_3, Sigma Aldrich S2002).
After seeding the cells, the plate was centrifuged at 1200 rpm for 5 minutes and the supernatant were discarded. Cells were then incubated for 60 min at 4° C. with 100p/well of the primary antibody appropriated dilution. Cells were washed twice with FACS buffer and 100p/well of the appropriated dilution of secondary/conjugated antibodies was added. Cells with secondary antibodies were incubated for 45 min at 4° C. in the dark. After two washes with FACS buffer, cells were resuspended in 100p FACS buffer per well and analyzed in a FACS Canto (BD Biosciences).
Example 12: Detection of CDH17 Surface Expression Using Newly Generated CDH17 Antibodies In FIG. 13 is shown how the newly generated anti-CDH17H2 antibody (comprising a VH of SEQ ID NO: 116 and a VL of SEQ ID NO: 117 and an IgG1 sequence of SEQ ID NO: 121) is able to detect CDH17 protein surface expression. FACS analysis was performed as described in Example 6. The newly generated anti-CDH17H2 antibody was used as primary antibody for detection, followed by a secondary antibody rabbit anti-mouse IgG PE (Dako, R0439). […]

Row | binding result | Binder
34 | binds | B18
